Test [1] addresses peptide II-44E. The test is described as follows: solid-phase binding assay (SPBA). Particulars: read off a plot.
Test [2] deals with peptide II-44I. The test is described as follows: solid-phase binding assay (SPBA). Particulars: read off a plot.
Test [3] concerns the target peptide II-44F. The test is described as follows: solid-phase binding assay (SPBA). As to conditions: read off a plot.
The target in test [4] is peptide II-44G. The test is described as follows: solid-phase binding assay (SPBA). Particulars: parent: est. 0.10; read off a plot.
Test [5] addresses peptide II-44B. In words: solid-phase binding assay (SPBA). As to conditions: read off a plot.
Test [6] concerns the target peptide II-44A. In words: solid-phase binding assay (SPBA). As to conditions: read off a plot.
The target in test [7] is peptide II-44C. The test is described as follows: solid-phase binding assay (SPBA). Particulars: read off a plot.
The target of test [8] is Toolkit peptide II-44. The test is described as follows: ELISA; solid-phase binding assay (SPBA), Fig. 1: Toolkit II peptides, fibrillar type I collagen or GPP10 coated at 10 μg/ml on Immulon 2 HB wells; MMP preparation or Hpx at 83 nM in TBS with 1 mg/ml BSA and 0.1% Tween-20, 1 h at 24 °C; detected with an antibody to the MMP-13 hinge region (Hpx: anti-GST), A450.
Test [9] deals with peptide II-44J. In words: ELISA; SPBA on truncated and Ala-substituted II-44 variant peptides, carried out as for Fig. 1 (Fig. 4). (ELISA stands for enzyme-linked immunosorbent assay.)
The target in test [10] is Toolkit peptide II-45. In words: ELISA; solid-phase binding assay (SPBA), Fig. 1: Toolkit II peptides, fibrillar type I collagen or GPP10 coated at 10 μg/ml on Immulon 2 HB wells; MMP preparation or Hpx at 83 nM in TBS with 1 mg/ml BSA and 0.1% Tween-20, 1 h at 24 °C; detected with an antibody to the MMP-13 hinge region (Hpx: anti-GST), A450.
In test [11] the target is Toolkit peptide II-21. The test is described as above.
The target of test [12] is Toolkit peptide II-51. Described as above.
For test [13], the target named is Toolkit peptide II-54. The description is as above.
Test [14] deals with Toolkit peptide II-53. Described as above.
Test [15] addresses Toolkit peptide II-13. Described as above.
For test [16], the target named is Toolkit peptide II-24. The test is described as above.
Test [17] has as its target Toolkit peptide II-17. The test is described as above.
The target of test [18] is Toolkit peptide II-55. The description is as above.
Test [19] concerns the target Toolkit peptide II-28. Described as above.
The target in test [20] is Toolkit peptide II-56. The test is described as above.
The target in test [21] is Toolkit peptide II-52. The test is described as above.
Test [22] concerns the target Toolkit peptide II-50. The test is described as above.
Test [23] has as its target Toolkit peptide II-49. The description is as above.
Test [24] concerns the target Fibrous bovine type I collagen (bovine) (UniProt P02453). The test is described as follows: ELISA; SPBA, increasing concentrations of MMP-13 or MMP-13(E204A) on wells coated with fibrillar or monomeric type I collagen (10 μg/ml); KD from fitted curves (Fig. 3).
Test [25] concerns the target Monomeric collagen (type I) (UniProt P02453). Described as above.
In test [26] the target is Fibrous bovine type I collagen (bovine) (UniProt P02453). The test is described as follows: ELISA; solid-phase binding assay (SPBA), Fig. 1: Toolkit II peptides, fibrillar type I collagen or GPP10 coated at 10 μg/ml on Immulon 2 HB wells; MMP preparation or Hpx at 83 nM in TBS with 1 mg/ml BSA and 0.1% Tween-20, 1 h at 24 °C; detected with an antibody to the MMP-13 hinge region (Hpx: anti-GST), A450.

The target of test [27] is peptide II-44H. In words: solid-phase binding assay (SPBA). Particulars: parent: est. 0.31; read off a plot.
Test [28] has as its target peptide II-44D. The test is described as follows: solid-phase binding assay (SPBA). Particulars: parent: est. 0.19; read off a plot.
The target of test [29] is peptide II-44J. The test is described as follows: solid-phase binding assay (SPBA). Particulars: parent: est. 0.26; read off a plot.

Fibrous bovine type I collagen (bovine), sequence (P02453 162-1217, chain 1 of 2): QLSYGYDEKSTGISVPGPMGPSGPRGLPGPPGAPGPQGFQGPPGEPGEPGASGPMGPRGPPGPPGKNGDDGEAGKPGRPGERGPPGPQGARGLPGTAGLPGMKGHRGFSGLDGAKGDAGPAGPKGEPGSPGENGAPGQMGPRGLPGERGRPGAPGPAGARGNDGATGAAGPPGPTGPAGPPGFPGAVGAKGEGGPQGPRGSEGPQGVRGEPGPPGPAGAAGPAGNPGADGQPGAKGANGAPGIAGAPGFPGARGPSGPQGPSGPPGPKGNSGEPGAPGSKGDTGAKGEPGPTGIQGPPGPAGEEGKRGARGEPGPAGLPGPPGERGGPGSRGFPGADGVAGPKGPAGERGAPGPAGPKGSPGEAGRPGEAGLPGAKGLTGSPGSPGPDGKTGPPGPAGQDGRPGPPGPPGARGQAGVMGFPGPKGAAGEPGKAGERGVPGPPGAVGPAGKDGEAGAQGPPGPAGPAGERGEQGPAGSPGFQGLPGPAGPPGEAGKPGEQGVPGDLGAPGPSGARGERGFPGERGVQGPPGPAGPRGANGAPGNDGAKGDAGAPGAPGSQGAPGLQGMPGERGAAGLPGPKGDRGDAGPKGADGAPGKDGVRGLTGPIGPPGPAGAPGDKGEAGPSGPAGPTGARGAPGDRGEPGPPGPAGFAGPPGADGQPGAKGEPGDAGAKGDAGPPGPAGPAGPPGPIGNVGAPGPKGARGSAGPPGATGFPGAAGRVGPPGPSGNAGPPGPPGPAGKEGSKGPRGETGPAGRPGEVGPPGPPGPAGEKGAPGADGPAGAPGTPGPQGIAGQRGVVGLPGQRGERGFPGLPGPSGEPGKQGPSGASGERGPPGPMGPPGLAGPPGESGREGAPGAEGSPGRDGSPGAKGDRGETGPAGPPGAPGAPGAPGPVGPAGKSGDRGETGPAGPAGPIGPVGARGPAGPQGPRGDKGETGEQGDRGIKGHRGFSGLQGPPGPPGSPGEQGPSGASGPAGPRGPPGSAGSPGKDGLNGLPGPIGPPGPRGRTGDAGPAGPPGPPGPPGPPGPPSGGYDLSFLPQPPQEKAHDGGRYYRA
Fibrous bovine type I collagen (bovine), sequence (P02465 80-1117, chain 2 of 2, further chain): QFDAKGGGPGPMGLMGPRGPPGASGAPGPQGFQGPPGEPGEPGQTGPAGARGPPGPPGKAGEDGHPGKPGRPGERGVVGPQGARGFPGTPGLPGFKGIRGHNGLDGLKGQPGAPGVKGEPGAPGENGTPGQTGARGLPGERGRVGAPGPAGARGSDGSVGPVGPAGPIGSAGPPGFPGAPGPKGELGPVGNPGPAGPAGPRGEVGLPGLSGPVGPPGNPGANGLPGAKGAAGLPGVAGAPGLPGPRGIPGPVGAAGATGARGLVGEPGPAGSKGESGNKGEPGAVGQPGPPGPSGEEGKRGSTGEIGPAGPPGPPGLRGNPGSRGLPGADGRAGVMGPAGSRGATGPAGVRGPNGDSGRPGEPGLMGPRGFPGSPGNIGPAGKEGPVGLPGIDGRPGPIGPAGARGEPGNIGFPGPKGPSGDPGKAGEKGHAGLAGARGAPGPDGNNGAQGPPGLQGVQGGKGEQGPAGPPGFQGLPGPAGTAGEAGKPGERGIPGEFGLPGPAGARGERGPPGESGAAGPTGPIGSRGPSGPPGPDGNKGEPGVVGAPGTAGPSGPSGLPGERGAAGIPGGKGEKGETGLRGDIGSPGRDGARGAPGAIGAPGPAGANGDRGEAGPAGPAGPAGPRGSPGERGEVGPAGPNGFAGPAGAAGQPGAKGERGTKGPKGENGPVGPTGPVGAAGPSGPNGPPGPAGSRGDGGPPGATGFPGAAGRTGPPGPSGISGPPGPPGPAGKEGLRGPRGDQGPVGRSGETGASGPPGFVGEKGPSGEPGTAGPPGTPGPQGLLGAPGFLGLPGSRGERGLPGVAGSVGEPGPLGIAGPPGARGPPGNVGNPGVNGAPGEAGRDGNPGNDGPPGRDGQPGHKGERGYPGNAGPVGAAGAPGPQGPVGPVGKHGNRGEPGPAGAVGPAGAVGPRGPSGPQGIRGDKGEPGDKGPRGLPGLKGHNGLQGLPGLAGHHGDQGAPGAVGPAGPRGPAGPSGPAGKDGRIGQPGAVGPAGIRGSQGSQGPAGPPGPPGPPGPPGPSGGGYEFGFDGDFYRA
Monomeric collagen (type I), sequence (P02453 162-1217, chain 1 of 2): as the sequence (P02453 162-1217, chain 1 of 2) above
Monomeric collagen (type I), sequence (P02465 80-1117, chain 2 of 2, further chain): as the sequence (P02465 80-1117, chain 2 of 2, further chain) above

With MMP-13 (from UniProt P45452) E204A, the response in test [1] (parent: est. 0.16) is 0.95 A450; in test [2] (parent: est. 0.20), 1.1 A450; in test [3] (parent: est. 0.08), 0.57 A450; in [4], 0.57 A450; in test [5] (parent: est. 0.09) it was 0.15 A450; in test [6] (parent: est. 0.19), 1.1 A450. Further, in test [7] (parent: est. 0.18), the response worked out at 0.87 A450.

In the case of “MMP-13 GST-Hpx domain (domain or fragment)”, the A450 was found to be 0.8 A450 in test [8] and 0.4 A450 in test [9].

With MMP-13(E204A) (enzyme), the A450 in test [10], in test [11], in test [12], in test [13], in test [14] and in test [15] was greater than 0.3 A450 in each case. In addition, the A450 in test [16] was less than 0.2 A450; in test [8] it was greater than 1.2 A450; in test [17], greater than 0.3 A450; in test [18], greater than 0.3 A450; in test [19] it was less than 0.2 A450; in test [20], greater than 0.3 A450. The A450 in test [21] is greater than 0.3 A450; in [22], greater than 0.3 A450; in [23] it was greater than 0.3 A450; in test [9] it was 0.8 A450. For the same substance, the Kd (in general, the constant that tells how readily two partners part at equilibrium) in test [24] stood at 52 nM; in test [25], 26 nM.

“proMMP-13 (from UniProt P45452 20-471) (enzyme)” displayed an A450 in test [26] greater than 1 A450.

In the case of proMMP-13 (from UniProt P45452) E204A, the response stood at 0.29 A450 in test [27]; 0.31 A450 in test [1] (parent: est. 0.33); 0.36 A450 in test [2] (parent: est. 0.41); 0.12 A450 in [3] (parent: est. 0.09); 0.15 A450 in [28]; 0.08 A450 in test [5] (parent: est. 0.08). For the same substance, the response in test [6] (parent: est. 0.41) is 0.41 A450; in test [7] (parent: est. 0.24), 0.23 A450; in [29], 0.29 A450.

The values are drawn from publication PMC4148842.
